Assay results as given in paper doi:10.1101/2019.12.18.881771 (bioRxiv, 2019).
No end group written: not given here. *: point of attachment. FITC = O=C1OC2(c3ccc(O)cc3Oc3cc(O)ccc32)c2ccc(NC(=S)*)cc21

Experiments:
[1] = target: GIT1 FAT domain (aa 640-770) (mouse) (UniProt Q68FF6); assay: ITC
[2] = target: FITC-labelled β-Pix GBD peptide, wild type (mouse); assay: fluorescence polarisation
GIT1 SHD domain = target: T1, GIT1 SHD domain (mouse, UniProt Q68FF6 260-371); assay: ITC
T1 sequence (looked up): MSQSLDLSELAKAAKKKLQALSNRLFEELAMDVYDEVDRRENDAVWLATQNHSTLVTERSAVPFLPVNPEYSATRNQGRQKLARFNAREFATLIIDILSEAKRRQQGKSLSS

[3] = target: T2, GIT1 GAP-ANK-SHD (GAS) tandem (mouse, UniProt Q68FF6 1-371); assay: fluorescence polarisation
T2 sequence (looked up): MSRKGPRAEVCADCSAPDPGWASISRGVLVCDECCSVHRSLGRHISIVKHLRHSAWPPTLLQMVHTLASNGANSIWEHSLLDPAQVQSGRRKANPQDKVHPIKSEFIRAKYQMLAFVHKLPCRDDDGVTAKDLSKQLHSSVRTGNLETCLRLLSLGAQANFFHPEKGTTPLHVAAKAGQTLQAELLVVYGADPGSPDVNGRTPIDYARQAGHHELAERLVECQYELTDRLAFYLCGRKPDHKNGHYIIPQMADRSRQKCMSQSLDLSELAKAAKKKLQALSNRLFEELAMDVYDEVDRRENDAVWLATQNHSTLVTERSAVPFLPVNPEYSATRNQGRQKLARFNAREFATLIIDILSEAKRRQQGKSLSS

SEC-MALS = target: the molecule itself; assay: SEC-MALS
[4] = target: T2, GIT1 GAP-ANK-SHD (GAS) tandem; assay: ITC

Chain of GIT1 FAT domain (aa 640-770) (mouse) (Q68FF6 640-770): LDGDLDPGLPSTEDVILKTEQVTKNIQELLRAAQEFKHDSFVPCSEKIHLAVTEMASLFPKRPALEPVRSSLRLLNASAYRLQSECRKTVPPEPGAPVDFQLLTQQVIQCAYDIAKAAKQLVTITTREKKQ

Which Kd [1] does the source give for Paxillin LD2 motif (peptide) here?
The Kd was 164000 nM.

“GIT2 GAP-ANK-SHD (GAS) tandem, wild type, purified (domain or fragment)” was tested. Which Kd [2] did it give?
Its Kd is 27 nM.

For “Paxillin LD4 motif (aa 261-282) (peptide)”, which Kd [1] is on record?
Its Kd is 3000 nM.

B1: β-Pix 494-555 (domain or fragment, mouse, UniProt Q9ES28-4 599-660, looked up)
chain: DLSKSPKTMKKLLPKRKPERKPSDEEFAVRKSTAALEEDAQILKVIEAYCTSAKTRQTLNSS
Which Kd (GIT1 SHD domain) does the source give for B1 here?
Its Kd is about 150 nM.

{FITC}-ALEEDAQILKVIEADCTSAKT (peptide, UniProt Q9ES28-4 633-653, looked up) [FITC-labelled β-Pix GBD Y542D peptide] was tested. Which Kd [3] did it give?
Its Kd is about 76400 nM.

B2: GIT1 coiled-coil domain, wild type (domain or fragment, mouse, UniProt Q68FF6 426-483, looked up)
chain: SDGAVTLQEYLELKKALATSEAKVQQLMKVNSSLSDELRRLQREIHKLQAENLQLRQP
For B2, which “stoichiometry N” value (SEC-MALS) is on record?
Its value is 2.

B3: β-Pix coiled-coil domain, wild type (domain or fragment, mouse, UniProt Q9ES28-4 691-751, looked up)
chain: EEKSLVDTVYALKDEVQELRQDNKKMKKSLEEEQRARKDLEKLVRKVLKNMNDPAWDETNL
With B3 as the molecule, how does the “stoichiometry N” value (SEC-MALS) read?
Its value is 3.

For ALEEDAQILKVIEAYCTSAKT [β-Pix GBD peptide (aa 528-548)], which Kd [4] is on record?
Its Kd is about 15 nM.

What about the Kd (GIT1 SHD domain) of the same molecule?
The Kd was about 180 nM.
